{"source": "patent US20210246194A1", "binders": {"B1": {"name": "7B2 IgG (antibody, V domains shown)", "VH": "QVQLVQSGGGVFKPGGSLRLSCEASGFTFTEYYMTWVRQAPGKGLEWLAYISKNGEYSKYSPSSNGRFTISRDNAKNSVFLQLDRLSADDTAVYYCARADGLTYFSELLQYIFDLWGQGARVTVSS", "VL": "DIVMTQSPDSLAVSPGERATIHCKSSQTLLYSSNNRHSIAWYQQRPGQPPKLLLYWASMRLSGVPDRFSGSGSGTDFTLTINNLQAEDVAIYYCHQYSSHPPTFGHGTRVEIK"}, "B2": {"name": "7B2GL IgG (antibody, V domains shown)", "VH": "QVQLVESGGGLVKPGGSLRLSCAASGFTFSEYYMTWIRQAPGKGLEWVSYISKNGEYSKYSPSSNGRFTISRDNAKNSLYLQMNSLRAEDTAVYYCARADGLTYFSELLQYIFDLWGQGTLVTVSS", "VL": "B1 VL with P15L, H22N, R45K, L54I, N82S, N83S, I91V, H106Q, R109K"}}, "target": "HIV-1 JRFL gp140 Recombinant protein (HIV-1 JRFL)", "assay": "Attana Cell A200 QCM; IgG captured on anti-human IgG Fc; gp140 at 25, 50 and 100 nM; 1:1 fit", "note": "Changes are numbered by the printed parent chain.", "data": [{"binder": "B1", "values": [{"measurement": "Kd", "value": 2.9, "unit": "nM"}]}, {"binder": "B2", "values": [{"measurement": "Kd", "value": 2.9, "unit": "nM"}]}]}
